Key:
[1] = molecular target: T1, human CD30L expressed on cells (human, UniProt P32971 1-234); assay: flow cytometry, B16-huCD30L cells
T1 construct: whole, on cells; also called huCD30L; B16-huCD30L cells
T1 sequence (looked up): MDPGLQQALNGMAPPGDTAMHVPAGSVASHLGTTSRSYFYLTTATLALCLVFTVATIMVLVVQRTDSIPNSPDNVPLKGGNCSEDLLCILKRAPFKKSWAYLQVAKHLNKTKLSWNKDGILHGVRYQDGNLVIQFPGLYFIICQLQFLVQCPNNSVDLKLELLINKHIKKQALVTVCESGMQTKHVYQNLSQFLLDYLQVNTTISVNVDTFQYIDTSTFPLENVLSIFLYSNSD
Method: Anti-CD30L antibody binding to a CD30L target was determined by flow cytometry, using B16 cells transfected to express human CD30L (compared to non-transfected B16), and using HEK293 cells transfected to express cynomolgus CD30L (compared to non-transfected HEK293). […] Cell surface bound antibodies were detected using a fluorescently labeled anti-human-IgG or anti-mouse IgG, depending on the Fc portion of the antibodies. After incubation with the secondary antibody, the cells were washed, fixed in a paraformaldehyde solution, and analyzed by flow cytometry to detect antibody binding.

[2] = molecular target: T1, human CD30L expressed on cells; assay: cell-based or functional assay
[3] = molecular target: T2, cynomolgus CD30L expressed on HEK293 cells (cynomolgus, UniProt A0A7N9CVX7 1-234); assay: cell-based or functional assay
T2 sequence: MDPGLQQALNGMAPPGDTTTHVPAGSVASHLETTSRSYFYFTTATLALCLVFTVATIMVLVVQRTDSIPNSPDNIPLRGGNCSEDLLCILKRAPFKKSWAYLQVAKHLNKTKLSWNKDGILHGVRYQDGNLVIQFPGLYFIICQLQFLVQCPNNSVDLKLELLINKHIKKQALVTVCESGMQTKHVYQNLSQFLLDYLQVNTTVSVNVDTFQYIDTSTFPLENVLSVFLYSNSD

[4] = molecular target: T1, human CD30L expressed on cells; assay: flow cytometry, blocking of huCD30 binding to B16-huCD30L cells
[5] = molecular target: T3, recombinant cynomolgus CD30L protein (cynomolgus, UniProt A0A7N9CVX7 63-234); assay: ELISA, 1/50 dil
T3 construct: Recombinant protein used in ELISA; also called cyCD30L
T3 sequence: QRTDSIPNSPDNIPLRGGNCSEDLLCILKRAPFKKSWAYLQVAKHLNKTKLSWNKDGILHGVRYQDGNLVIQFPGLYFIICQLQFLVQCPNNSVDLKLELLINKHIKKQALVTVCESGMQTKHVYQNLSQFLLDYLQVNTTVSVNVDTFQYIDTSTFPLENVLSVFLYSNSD

[6] = molecular target: T3, recombinant cynomolgus CD30L protein; assay: ELISA, 1/500 dil
[7] = molecular target: T3, recombinant cynomolgus CD30L protein; assay: ELISA, 1/5000 dil
[8] = molecular target: T4, recombinant human CD30L protein (human, UniProt P32971 63-234); assay: ELISA, CD30 competitor, 1/10 dil
T4 construct: Recombinant protein used in ELISA; also called huCD30L
T4 sequence (looked up): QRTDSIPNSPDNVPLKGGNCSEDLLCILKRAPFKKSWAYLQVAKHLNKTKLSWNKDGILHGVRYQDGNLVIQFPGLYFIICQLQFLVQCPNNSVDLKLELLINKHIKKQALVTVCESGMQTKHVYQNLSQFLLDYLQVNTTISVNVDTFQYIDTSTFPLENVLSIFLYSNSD

[9] = molecular target: T4, recombinant human CD30L protein; assay: ELISA, CD30 competitor, 1/100 dil
[10] = molecular target: T4, recombinant human CD30L protein; assay: ELISA, CD30 competitor, undil
[11] = molecular target: T4, recombinant human CD30L protein; assay: ELISA, CD30 competitor, 1/1000 dil
[12] = molecular target: T5, recombinant human CD30L protein (human, UniProt P32971 63-234); assay: ELISA, huCD30L, 1/5000 dil
T5 construct: also called rhCD30L; huCD30L (ELISA)
T5 sequence (looked up): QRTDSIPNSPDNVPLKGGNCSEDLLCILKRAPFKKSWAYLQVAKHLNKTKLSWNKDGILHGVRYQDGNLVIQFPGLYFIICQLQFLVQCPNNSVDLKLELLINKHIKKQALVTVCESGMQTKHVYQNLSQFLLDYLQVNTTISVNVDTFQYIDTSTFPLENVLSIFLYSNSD

[13] = molecular target: T6, human CD30L expressed on cells (human, UniProt P32971 1-234); assay: flow cytometry, huCD30L cells, 1/50 dil
T6 construct: also called huCD30L; B16-huCD30L
T6 sequence: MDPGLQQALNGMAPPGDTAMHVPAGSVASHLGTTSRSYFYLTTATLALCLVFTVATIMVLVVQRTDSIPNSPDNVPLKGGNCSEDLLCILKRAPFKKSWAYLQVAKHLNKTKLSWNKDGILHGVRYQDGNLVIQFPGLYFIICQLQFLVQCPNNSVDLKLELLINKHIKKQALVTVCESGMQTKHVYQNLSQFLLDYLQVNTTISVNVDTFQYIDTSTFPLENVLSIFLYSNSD

[14] = molecular target: T5, recombinant human CD30L protein; assay: ELISA, huCD30L, 1/50 dil
[15] = molecular target: T7, cynomolgus CD30L expressed on cells (cynomolgus, UniProt A0A7N9CVX7 1-234); assay: flow cytometry, cyCD30L cells, 1/50 dil
T7 construct: whole, on cells; also called cyCD30L; HEK293-cyCD30L
T7 sequence: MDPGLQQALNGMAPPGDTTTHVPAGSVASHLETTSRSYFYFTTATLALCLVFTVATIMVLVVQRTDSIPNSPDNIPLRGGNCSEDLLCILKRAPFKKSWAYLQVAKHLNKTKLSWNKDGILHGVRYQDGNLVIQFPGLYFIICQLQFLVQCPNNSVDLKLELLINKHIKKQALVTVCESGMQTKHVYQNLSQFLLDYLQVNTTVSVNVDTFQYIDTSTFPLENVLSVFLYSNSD

[16] = molecular target: T5, recombinant human CD30L protein; assay: ELISA, huCD30L, 1/500 dil

B1: Clone 1, Mouse IgG (antibody, V domains shown)
VH: QVQLQESGPGLVKPSETLSLTCTVSGGSISGYYWSWIRQPPVKGLEWIGYIFYSGYTKYNPSLKSRVTISVDTSKNQFSLKLSSVTAADTAVYYCARDRWDFDYWGQGALVTVSS
VL: AIQMTQSPSYLSASVGDRVTIACRASQGIRNNLGWYQQKPGKAPKLLIYAESSLQSGVPSRFSGSGSGTDFTLTISSLQPEDFATYYCLQDFNYPYTFGQGTKLEIK
notes: Mouse IgG format
Q: For B1, which EC50 [1] is on record?
A: 1.95 nM

Q: And the “Inhibition of IL-8 release in a dual cell assay (B16-huCD30L cells + K299 cells) IC50” value [2]?
A: 1.99 nM

Q: What about the “Inhibition of IL-8 release in a dual cell assay (HEK293-cyCD30L cells + K299 cells) IC50” value [3] of the same binder?
A: 0.55 nM

Q: What about the IC50 [4] of the same binder?
A: 3.06 nM

B2: Clone 3 (antibody, V domains shown)
VH: QVQLQESGPGLVKPSETLSLTCTVSGGSISGYYWSWIRQPPVKGLEWIGYIFYSGYTKYNPSLKSRVTISVDTSKNQFSLKLSSVTAADTAVYYCARDRWDFDYWGQGALVTVSS
VL: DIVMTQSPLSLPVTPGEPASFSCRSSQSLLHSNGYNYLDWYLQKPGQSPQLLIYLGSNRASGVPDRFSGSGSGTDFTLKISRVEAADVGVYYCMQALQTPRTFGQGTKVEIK
notes: Hybridoma screening sample; also called CLONE_3 (parental)
Q: For B2, which “Elisa Binding (OD)” value [5] is on record?
A: 3.2 OD

Q: What about the “Elisa Binding (OD)” value [6] of the same binder?
A: 2.35 OD

Q: And the “Elisa Binding (OD)” value [7]?
A: 0.552 OD

Q: And the “% inhibition” value [8]?
A: 95%

Q: What about the “% inhibition” value [9] of the same binder?
A: 17%

Q: And the “% inhibition” value [10]?
A: 98%

Q: What about the “% inhibition” value [11] of the same binder?
A: 3%

B3: anti-CD30L clone 3 (antibody, V domains shown)
VH: QVQLQESGPGLVKPSETLSLTCTVSGGSISGYYWSWIRQPPVKGLEWIGYIFYSGYTKYNPSLKSRVTISVDTSKNQFSLKLSSVTAADTAVYYCARDRWDFDYWGQGALVTVSS
VL: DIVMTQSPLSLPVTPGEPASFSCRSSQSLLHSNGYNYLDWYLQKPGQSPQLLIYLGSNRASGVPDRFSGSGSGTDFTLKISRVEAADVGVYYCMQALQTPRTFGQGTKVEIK
Q: With B3 as the binder, how does the OD [12] read?
A: 0.662 OD

Q: And the MFI [13]?
A: 153 MFI

Q: What about the OD [14] of the same binder?
A: 3.5 OD

Q: And the MFI [15]?
A: 72.4 MFI

Q: And the OD [16]?
A: 2.54 OD

B4: Clone 1, Human IgG1 (antibody, V domains shown)
VH: QVQLQESGPGLVKPSETLSLTCTVSGGSISGYYWSWIRQPPVKGLEWIGYIFYSGYTKYNPSLKSRVTISVDTSKNQFSLKLSSVTAADTAVYYCARDRWDFDYWGQGALVTVSS
VL: AIQMTQSPSYLSASVGDRVTIACRASQGIRNNLGWYQQKPGKAPKLLIYAESSLQSGVPSRFSGSGSGTDFTLTISSLQPEDFATYYCLQDFNYPYTFGQGTKLEIK
notes: Human IgG1 format
Q: B4 was tested. Which EC50 [1] did it give?
A: 1.41 nM

Q: What about the “Inhibition of IL-8 release in a dual cell assay (B16-huCD30L cells + K299 cells) IC50” value [2] of the same binder?
A: 1.1 nM

Q: And the “Inhibition of IL-8 release in a dual cell assay (HEK293-cyCD30L cells + K299 cells) IC50” value [3]?
A: 0.22 nM

Q: What about the IC50 [4] of the same binder?
A: 1.35 nM

B5: anti-CD30L clone 1 (antibody, V domains shown)
VH: QVQLQESGPGLVKPSETLSLTCTVSGGSISGYYWSWIRQPPVKGLEWIGYIFYSGYTKYNPSLKSRVTISVDTSKNQFSLKLSSVTAADTAVYYCARDRWDFDYWGQGALVTVSS
VL: AIQMTQSPSYLSASVGDRVTIACRASQGIRNNLGWYQQKPGKAPKLLIYAESSLQSGVPSRFSGSGSGTDFTLTISSLQPEDFATYYCLQDFNYPYTFGQGTKLEIK
notes: From mice with humanized immunoglobulin locus; elsewhere tested as mouse IgG and human IgG1; also called clone 1 parental
Q: B5 was tested. Which OD [12] did it give?
A: 1.28 OD

Q: What about the MFI [13] of the same binder?
A: 208 MFI

Q: What about the OD [14] of the same binder?
A: 3.59 OD

Q: And the MFI [15]?
A: 77.3 MFI

Q: What about the OD [16] of the same binder?
A: 3.02 OD
